Measurements from article PMC3253074, “βB1-Crystallin: Thermodynamic Profiles of Molecular Interactions” (PLoS ONE, 2012).

B1: murine βB1-crystallin, wild type recombinant (natural protein, UniProt Q9WVJ5 1-250, looked up)
chain: MSQAAKASATTAVNPGPDGKGKGAPSTGPAPAPGPTPVPASVPRPAAKVGDLPPGSYRLIVFEQENFQGRRVEFSGECLNLGDRGFDRVRSLIVVSGPWVAFEQSAFRGEMFVLEKGEYPRWDTWTSSYRSDRLMSFRPIRMDSQEHKICLFEGANFKGNTMEIQEDDVPSLWVYGFCDRVGSITVSGGTWVGYQYPGYRGYQYLLEPGDFRHWNEWGAFQPQMQAVRRLRDRQWHQEGCFPVLTAEPPK
notes: βB1-crystallin, mouse, wild type recombinant; monomer printed as 28 kDa; source: E. coli, purified (ion-exchange and size-exclusion chromatography)
B2: murine βB1-crystallin (natural protein, UniProt Q9WVJ5 1-250, looked up)
chain: B1 chain
notes: βB1-crystallin, mouse, wild type recombinant; monomer 28 kDa as printed; source: E. coli, purified (ion-exchange and size-exclusion chromatography)
B3: human βA3-crystallin, wild type recombinant (natural protein, UniProt P05813 1-215, looked up)
chain: METQAEQQELETLPTTKMAQTNPTPGSLGPWKITIYDQENFQGKRMEFTSSCPNVSERSFDNVRSLKVESGAWIGYEHTSFCGQQFILERGEYPRWDAWSGSNAYHIERLMSFRPICSANHKESKMTIFEKENFIGRQWEISDDYPSLQAMGWFNNEVGSMKIQSGAWVCYQYPGYRGYQYILECDHHGGDYKHWREWGSHAQTSQIQSIRRIQQ
notes: βA3-crystallin, human, wild type recombinant; monomer printed as 25 kDa; source: E. coli, purified (ion-exchange and size-exclusion chromatography)
B4: βB1/βA3 heterodimer (murine βB1 with human βA3) (complex, murine | human)
chain 1: B1 chain
chain 2: B3 chain
notes: βB1-crystallin, mouse, wild type recombinant; as the chain of Wm1; βA3-crystallin, human, wild type recombinant; as the chain of Wm2; also called βB1/βA3 complex; source: equimolar mixture (~20 µM each) of βB1 and βA3 purified from E. coli, incubated at room temperature for 24 h
B5: human βA3-crystallin (natural protein, UniProt P05813 1-215, looked up)
chain: B3 chain
notes: βA3-crystallin, human, wild type recombinant; monomer 25 kDa as printed; source: E. coli, purified (ion-exchange and size-exclusion chromatography)
B6: βB1/βA3 heterodimer (murine βB1 with human βA3), the unit of the heterodimer-heterotetramer equilibrium (complex, murine | human)
chain 1: B1 chain
chain 2: B3 chain
notes: βB1-crystallin, mouse, wild type recombinant, as m1; βA3-crystallin, human, wild type recombinant, as m2; The heterodimer is the unit of the best-fit model; also called βB1/βA3 complex; [βB1/βA3]4 (the tetramer); source: equimolar mixture (~20 µM each) of the purified E. coli proteins, incubated 24 h

Legend:
[1] = molecular target: the molecule itself; test: AUC; sedimentation equilibrium at 5°C increments over 5-30°C, 0.5 mg/ml, Buffer A pH 7.5; enthalpy from van't Hoff plots of ln(Kd/Co) against 1/T; dimer to monomers (βB1, βA3), heterotetramer to heterodimers (βB1/βA3)
[2] = molecular target: the molecule itself; test: as above; remark: listed apart in the source
[3] = molecular target: the molecule itself; test: AUC; sedimentation equilibrium, 18,500 rpm, 25 °C, Buffer A (50 mM Tris-HCl, 1 mM EDTA, 0.15 M NaCl, 1 mM TCEP, pH 7.5), 0.5 mg/ml; dimer to monomers
[4] = molecular target: the molecule itself; test: AUC; sedimentation equilibrium, 18,500 rpm, 15 °C, Buffer A (50 mM Tris-HCl, 1 mM EDTA, 0.15 M NaCl, 1 mM TCEP, pH 7.5), 0.5 mg/ml; dimer to monomers
[5] = molecular target: the molecule itself; test: AUC; sedimentation equilibrium, 18,500 rpm, 20 °C, Buffer A (50 mM Tris-HCl, 1 mM EDTA, 0.15 M NaCl, 1 mM TCEP, pH 7.5), 0.5 mg/ml; dimer to monomers
[6] = molecular target: the molecule itself; test: AUC; sedimentation equilibrium, 18,500 rpm, 30 °C, Buffer A (50 mM Tris-HCl, 1 mM EDTA, 0.15 M NaCl, 1 mM TCEP, pH 7.5), 0.5 mg/ml; dimer to monomers
[7] = molecular target: the molecule itself; test: AUC; sedimentation equilibrium, 18,500 rpm, 10 °C, Buffer A (50 mM Tris-HCl, 1 mM EDTA, 0.15 M NaCl, 1 mM TCEP, pH 7.5), 0.5 mg/ml; dimer to monomers
[8] = molecular target: the molecule itself; test: AUC; sedimentation equilibrium, 18,500 rpm, 5 °C, Buffer A (50 mM Tris-HCl, 1 mM EDTA, 0.15 M NaCl, 1 mM TCEP, pH 7.5), 0.5 mg/ml; dimer to monomers
[9] = molecular target: B1; test: SEC; equimolar mixture (~20 µM each) incubated 24 h, Superdex 75 HR10/30, Buffer A (50 mM Tris-HCl, 1 mM EDTA, 0.15 M NaCl, 1 mM TCEP, pH 7.5), 0.5 ml/min; conditions: both partners purified
[10] = molecular target: the molecule itself; test: AUC; sedimentation equilibrium of the equimolar βB1/βA3 mixture, 18,500 rpm, 25 °C, Buffer A pH 7.5, 0.5 mg/ml; heterotetramer to heterodimers
[11] = molecular target: the molecule itself; test: AUC; sedimentation equilibrium of the equimolar βB1/βA3 mixture, 18,500 rpm, 10 °C, Buffer A pH 7.5, 0.5 mg/ml; heterotetramer to heterodimers
[12] = molecular target: the molecule itself; test: AUC; sedimentation equilibrium of the equimolar βB1/βA3 mixture, 18,500 rpm, 15 °C, Buffer A pH 7.5, 0.5 mg/ml; heterotetramer to heterodimers
[13] = molecular target: the molecule itself; test: AUC; sedimentation equilibrium of the equimolar βB1/βA3 mixture, 18,500 rpm, 30 °C, Buffer A pH 7.5, 0.5 mg/ml; heterotetramer to heterodimers
[14] = molecular target: the molecule itself; test: AUC; sedimentation equilibrium of the equimolar βB1/βA3 mixture, 18,500 rpm, 5 °C, Buffer A pH 7.5, 0.5 mg/ml; heterotetramer to heterodimers
[15] = molecular target: the molecule itself; test: AUC; sedimentation equilibrium of the equimolar βB1/βA3 mixture, 18,500 rpm, 16 h, 20°C, Buffer A pH 7.5; heterotetramer to heterodimers

Binder | dH (van't Hoff, ΔCp = 0) [1] | dH (van't Hoff, ΔCp nonzero) [1] | stoichiometry N [2] | Kd [3] | Kd [4] | Kd [5] | Kd [6] | Kd [7] | Kd [8] | also measured
B1 | -13.3 ± 5.6 kcal/mol | -21.2 ± 4.6 kcal/mol | 2 | – | – | – | – | – | – | –
B2 | – | – | – | 12.6 µM | 1.91 µM | 4.71 µM | 17.6 µM | 1.64 µM | 3.99 µM | –
B3 | 8 ± 3 kcal/mol | 7.2 ± 2.5 kcal/mol | 2 | – | – | – | – | – | – | binding result [9]: binds
B4 | – | – | – | – | – | – | – | – | – | Kd [10]: 12.8 µM; Kd [11]: 540 nM; Kd [12]: 1140 nM; Kd [13]: 22.1 µM; Kd [14]: 1210 nM
B5 | – | – | – | 1.62 µM | 5.32 µM | 5.21 µM | 2.07 µM | 6.47 µM | 11.8 µM | –
B6 | -24.5 ± 6.2 kcal/mol | -29.6 ± 8.1 kcal/mol | – | – | – | – | – | – | – | Kd [15]: 8.78 µM
